Data reported in PMC3503981.

Target: PfUDN, N-terminal fragment of Plasmodium falciparum UvrD helicase (P. falciparum 3D7)

- stimulation of the unwinding (helicase) activity of PfUDN (10 nM) on the 3′ to 5′ direction-specific substrate 3B by PfMLH (8 and 16 nM) pre-incubated with the substrate, against PfUDN alone: 22 to 36%
Substance: PfMLH (P. falciparum MutL homologue) (natural protein)
